In US20240270846A1:
“And” between values parts separate entries of the source, which are not always exact repeats. Equal values may be shown once.

Molecular target: ECM (extracellular matrix)
Assay: ECL assay on ECM (Matrigel)-coated plate, MRA reference of the same plate or date

- ECL reaction (MRA): 448 and 564
Substance: MRA (antibody)
